In the supplement of paper PMC11316812:
± gives the standard deviation of the averaged measurements.

Experiments:
MCF7 = assay: percentage of EdU-negative (G0-arrested) nuclei per well, 72 h; higher = more G0 arrest; details: reference: sequence is the full UniProt precursor, the tested protein was the secreted form or ectodomain
hTERT-HMEC = assay: as above; details: reference: sequence is the full UniProt precursor, the tested protein was the secreted form or ectodomain
[1] = protein concentration 0.0225 µM
[2] = protein concentration 0.0231125 µM
[3] = protein concentration 0.231125 µM
[4] = protein concentration 0.03125 µM
[5] = protein concentration 0.3125 µM
[6] = protein concentration 0.0197775 µM
[7] = protein concentration 0.197775 µM
[8] = protein concentration 0.0255 µM
[9] = protein concentration 0.0257143 µM
[10] = protein concentration 0.257143 µM
[11] = protein concentration 0.0357143 µM
[12] = protein concentration 0.357143 µM
[13] = protein concentration 0.0308875 µM
[14] = protein concentration 0.308875 µM
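Further: secreted proteins added to cultured cells, EdU pulse at the end, nuclei found by Hoechst imaging, EdU status from nuclear versus surrounding ring intensity ratio, PBS as neutral control.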

MALHIHEACILLLVIPGLVTSAAISHEDYPADEGDQISSNDNLIFDDYRGKGCVDDSGFVYKLGERFFPGHSNCPCVCALDGPVCDQPECPKIHPKCTKVEHNGCCPECKEVKNFCEYHGKNYKILEEFKPSPCEWCRCEPSNEVHCVVADCAVPECVNPVYEPEQCCPVCKNGPNCFAGTTIIPAGIEVKVDECNICHCHNGDWWKPAQCSKRECQGKQTV [B2RUY7]
percentage of EdU-negative (MCF7; [1]): 26.9 ± 1.9% | percentage of EdU-negative (MCF7; protein concentration 0.225 µM): 25.9 ± 1.7% | percentage of EdU-negative (hTERT-HMEC; [1]): 5.12 ± 0.14% | percentage of EdU-negative (hTERT-HMEC; protein concentration 0.225 µM): 5.63 ± 0.95%

MALLFSLILAICTRPGFLASPSGVRLVGGLHRCEGRVEVEQKGQWGTVCDDGWDIKDVAVLCRELGCGAASGTPSGILYEPPAEKEQKVLIQSVSCTGTEDTLAQCEQEEVYDCSHDEDAGASCENPESSFSPVPEGVRLADGPGHCKGRVEVKHQNQWYTVCQTGWSLRAAKVVCRQLGCGRAVLTQKRCNKHAYGRKPIWLSQMSCSGREATLQDCPSGPWGKNTCNHDEDTWVECEDPFDLRLVGGDNLCSGRLEVLHKGVWGSVCDDNWGEKEDQVVCKQLGCGKSLSPSFRDRKCYGPGVGRIWLDNVRCSGEEQSLEQCQHRFWGFHDCTHQEDVAVICSG
percentage of EdU-negative (MCF7; [2]): 24.9 ± 0.77% | percentage of EdU-negative (MCF7; [3]): 27.1 ± 0.67% | percentage of EdU-negative (hTERT-HMEC; [2]): 5.21 ± 0.98% | percentage of EdU-negative (hTERT-HMEC; [3]): 5.51 ± 0.056%

MALLPVLFLVTVLLPSLPAEGKDPAFTALLTTQLQVQREIVNKHNELRKAVSPPASNMLKMEWSREVTTNAQRWANKCTLQHSDPEDRKTSTRCGENLYMSSDPTSWSSAIQSWYDEILDFVYGVGPKSPNAVVGHYTQLVWYSTYQVGCGIAYCPNQDSLKYYYVCQYCPAGNNMNRKNTPYQQGTPCAGCPDDCDKGLCTNSCQYQDLLSNCDSLKNTAGCEHELLKEKCKATCLCENKIY
percentage of EdU-negative (MCF7; [4]): 26.4 ± 1.6% | percentage of EdU-negative (MCF7; [5]): 25 ± 1.1% | percentage of EdU-negative (hTERT-HMEC; [4]): 5.26 ± 0.72% | percentage of EdU-negative (hTERT-HMEC; [5]): 6.12 ± 1.6%

MALLWGLLVLSWSCLQGPCSVFSPVSAMEPLGRQLTSGPNQEQVSPLTLLKLGNQEPGGQTALKSPPGVCSRDPTPEQTHRLARAMMAFTADLFSLVAQTSTCPNLILSPLSVALALSHLALGAQNHTLQRLQQVLHAGSGPCLPHLLSRLCQDLGPGAFRLAARMYLQKGFPIKEDFLEQSEQLFGAKPVSLTGKQEDDLANINQWVKEATEGKIQEFLSGLPEDTVLLLLNAIHFQGFWRNKFDPSLTQRDSFHLDEQFTVPVEMMQARTYPLRWFLLEQPEIQVAHFPFKNNMSFVVLVPTHFEWNVSQVLANLSWDTLHPPLVWERPTKVRLPKLYLKHQMDLVATLSQLGLQELFQAPDLRGISEQSLVVSGVQHQSTLELSEVGVEAAAATSIAMSRMSLSSFSVNRPFLFFIFEDTTGLPLFVGSVRNPNPSAPRELKEQQDSPGNKDFLQSLKGFPRGDKLFGPDLKLVPPMEEDYPQFGSPK
percentage of EdU-negative (MCF7; [6]): 24.1 ± 0.71% | percentage of EdU-negative (MCF7; [7]): 29.1 ± 1.3% | percentage of EdU-negative (hTERT-HMEC; [6]): 4.44 ± 1.1% | percentage of EdU-negative (hTERT-HMEC; [7]): 10.5 ± 1%

MALPFALLMALVVLSCKSSCSLDCDLPQTHSLGHRRTMMLLAQMRRISLFSCLKDRHDFRFPQEEFDGNQFQKAEAISVLHEVIQQTFNLFSTKDSSVAWDERLLDKLYTELYQQLNDLEACVMQEVWVGGTPLMNEDSILAVRKYFQRITLYLTEKKYSPCAWEVVRAEIMRSFSSSRNLQERLRRKE
percentage of EdU-negative (MCF7; [8]): 48.4 ± 2.7% | percentage of EdU-negative (MCF7; protein concentration 0.255 µM): 49.64 ± 0.2% | percentage of EdU-negative (hTERT-HMEC; [8]): 15.8 ± 6.2% | percentage of EdU-negative (hTERT-HMEC; protein concentration 0.255 µM): 27.4 ± 0.99%

MALPFALMMALVVLSCKSSCSLGCNLSQTHSLNNRRTLMLMAQMRRISPFSCLKDRHDFEFPQEEFDGNQFQKAQAISVLHEMMQQTFNLFSTKNSSAAWDETLLEKFYIELFQQMNDLEACVIQEVGVEETPLMNEDSILAVKKYFQRITLYLMEKKYSPCAWEVVRAEIMRSLSFSTNLQKRLRRKD
percentage of EdU-negative (MCF7; protein concentration 0.03 µM): 49.17 ± 0.42% | percentage of EdU-negative (MCF7; protein concentration 0.3 µM): 48.8 ± 4.3% | percentage of EdU-negative (hTERT-HMEC; protein concentration 0.03 µM): 21.5 ± 5.7% | percentage of EdU-negative (hTERT-HMEC; protein concentration 0.3 µM): 34.2 ± 2.4%

MALPFVLLMALVVLNCKSICSLGCDLPQTHSLSNRRTLMIMAQMGRISPFSCLKDRHDFGFPQEEFDGNQFQKAQAISVLHEMIQQTFNLFSTKDSSATWDETLLDKFYTELYQQLNDLEACMMQEVGVEDTPLMNVDSILTVRKYFQRITLYLTEKKYSPCAWEVVRAEIMRSFSLSANLQERLRRKE
percentage of EdU-negative (MCF7; [4]): 45.45 ± 0.21% | percentage of EdU-negative (MCF7; [5]): 48.29 ± 0.24% | percentage of EdU-negative (hTERT-HMEC; [4]): 22.9 ± 1.4% | percentage of EdU-negative (hTERT-HMEC; [5]): 28.6 ± 0.61%

MALPRCTWPNYVWRAVMACLVHRGLGAPLTLCMLGCLLQAGHVLSQKLDDVDPLVATNFGKIRGIKKELNNEILGPVIQFLGVPYAAPPTGERRFQPPEPPSPWSDIRNATQFAPVCPQNIIDGRLPEVMLPVWFTNNLDVVSSYVQDQSEDCLYLNIYVPTEDVKRISKECARKPGKKICRKGGPLTKKQTDDLGDNDGAEDEDIRDSGGPKPVMVYIHGGSYMEGTGNLYDGSVLASYGNVIVITVNYRLGVLGFLSTGDQAAKGNYGLLDLIQALRWTSENIGFFGGDPLRITVFGSGAGGSCVNLLTLSHYSEGNRWSNSTKGLFQRAIAQSGTALSSWAVSFQPAKYARMLATKVGCNVSDTVELVECLQKKPYKELVDQDIQPARYHIAFGPVIDGDVIPDDPQILMEQGEFLNYDIMLGVNQGEGLKFVENIVDSDDGISASDFDFAVSNFVDNLYGYPEGKDVLRETIKFMYTDWADRHNPETRRKTLLALFTDHQWVAPAVATADLHSNFGSPTYFYAFYHHCQTDQVPAWADAAHGDEVPYVLGIPMIGPTELFPCNFSKNDVMLSAVVMTYWTNFAKTGDPNQPVPQDTKFIHTKPNRFEEVAWTRYSQKDQLYLHIGLKPRVKEHYRANKVNLWLELVPHLHNLNDISQYTSTTTKVPSTDITFRPTRKNSVPVTSAFPTAKQDDPKQQPSPFSVDQRDYSTELSVTIAVGASLLFLNILAFAALYYKKDKRRHDVHRRCSPQRTTTNDLTHAQEEEIMSLQMKHTDLDHECESIHPHEVVLRTACPPDYTLAMRRSPDDVPLMTPNTITMIPNTIPGIQPLHTFNTFTGGQNNTLPHPHPHPHSHSTTRV [Q8N2Q7]
percentage of EdU-negative (MCF7; [9]): 23.1 ± 1.3% | percentage of EdU-negative (MCF7; [10]): 22.8 ± 3.5% | percentage of EdU-negative (hTERT-HMEC; [9]): 4.75 ± 0.6% | percentage of EdU-negative (hTERT-HMEC; [10]): 5.43 ± 0.056%

MALPSLLLLVAALAGGVRPPGARNLTLAVVLPEHNLSYAWAWPRVGPAVALAVEALGRALPVDLRFVSSELEGACSEYLAPLSAVDLKLYHDPDLLLGPGCVYPAASVARFASHWRLPLLTAGAVASGFSAKNDHYRTLVRTGPSAPKLGEFVVTLHGHFNWTARAALLYLDARTDDRPHYFTIEGVFEALQGSNLSVQHQVYAREPGGPEQATHFIRANGRIVYICGPLEMLHEILLQAQRENLTNGDYVFFYLDVFGESLRAGPTRATGRPWQDNRTREQAQALREAFQTVLVITYREPPNPEYQEFQNRLLIRAREDFGVELGPSLMNLIAGCFYDGILLYAEVLNETIQEGGTREDGLRIVEKMQGRRYHGVTGLVVMDKNNDRETDFVLWAMGDLDSGDFQPAAHYSGAEKQIWWTGRPIPWVKGAPPSDNPPCAFDLDDPSCDKTPLSTLAIVALGTGITFIMFGVSSFLIFRKLMLEKELASMLWRIRWEELQFGNSERYHKGAGSRLTLSLRGSSYGSLMTAHGKYQIFANTGHFKGNVVAIKHVNKKRIELTRQVLFELKHMRDVQFNHLTRFIGACIDPPNICIVTEYCPRGSLQDILENDSINLDWMFRYSLINDLVKGMAFLHNSIISSHGSLKSSNCVVDSRFVLKITDYGLASFRSTAEPDDSHALYAKKLWTAPELLSGNPLPTTGMQKADVYSFGIILQEIALRSGPFYLEGLDLSPKEIVQKVRNGQRPYFRPSIDRTQLNEELVLLMERCWAQDPAERPDFGQIKGFIRRFNKEGGTSILDNLLLRMEQYANNLEKLVEERTQAYLEEKRKAEALLYQILPHSVAEQLKRGETVQAEAFDSVTIYFSDIVGFTALSAESTPMQVVTLLNDLYTCFDAIIDNFDVYKVETIGDAYMVVSGLPGRNGQRHAPEIARMALALLDAVSSFRIRHRPHDQLRLRIGVHTGPVCAGVVGLKMPRYCLFGDTVNTASRMESNGQALKIHVSSTTKDALDELGCFQLELRGDVEMKGKGKMRTYWLLGERKGPPGLL
percentage of EdU-negative (MCF7; [1]): 28 ± 1% | percentage of EdU-negative (MCF7; protein concentration 0.225 µM): 28.8 ± 1.5% | percentage of EdU-negative (hTERT-HMEC; [1]): 4.62 ± 0.46% | percentage of EdU-negative (hTERT-HMEC; protein concentration 0.225 µM): 6.68 ± 1.3%

MALPSRILLWKLVLLQSSAVLLHSGSSVPAAAGSSVVSESAVSWEAGARAVLRCQSPRMVWTQDRLHDRQRVLHWDLRGPGGGPARRLLDLYSAGEQRVYEARDRGRLELSASAFDDGNFSLLIRAVEETDAGLYTCNLHHHYCHLYESLAVRLEVTDGPPATPAYWDGEKEVLAVARGAPALLTCVNRGHVWTDRHVEEAQQVVHWDRQPPGVPHDRADRLLDLYASGERRAYGPLFLRDRVAVGADAFERGDFSLRIEPLEVADEGTYSCHLHHHYCGLHERRVFHLTVAEPHAEPPPRGSPGNGSSHSGAPGPDPTLARGHNVINVIVPESRAHFFQQLGYVLATLLLFILLLVTVLLAARRRRGGYEYSDQKSGKSKGKDVNLAEFAVAAGDQMLYRSEDIQLDYKNNILKERAELAHSPLPAKYIDLDKGFRKENCK [Q9BRK3]
percentage of EdU-negative (MCF7; [11]): 23.2 ± 2.3% | percentage of EdU-negative (MCF7; [12]): 25 ± 0.57% | percentage of EdU-negative (hTERT-HMEC; [11]): 4.84 ± 0.53% | percentage of EdU-negative (hTERT-HMEC; [12]): 5.72 ± 0.27%

MALQRTHSLLLLLLLTLLGLGLVQPSYGQDGMYQRFLRQHVHPEETGGSDRYCNLMMQRRKMTLYHCKRFNTFIHEDIWNIRSICSTTNIQCKNGKMNCHEGVVKVTDCRDTGSSRAPNCRYRAIASTRRVVIACEGNPQVPVHFDG
percentage of EdU-negative (MCF7; [13]): 25 ± 2.2% | percentage of EdU-negative (MCF7; [14]): 25.6 ± 4.4% | percentage of EdU-negative (hTERT-HMEC; [13]): 4.98 ± 0.26% | percentage of EdU-negative (hTERT-HMEC; [14]): 4.74 ± 0.71%
